Data from patent US20240352090A1, “USE OF PROTEIN SEQUENCE CAPABLE OF BINDING TO SUBSTRATE IN PREPARATION OF PRODUCT FOR INHIBITING FIBRIN ASSEMBLY” (NANJING UNIVERSITY, priority 2021, published 2024).
Numbering of substitutions follows the chain as printed.

T1: fibrin aggregates (Homo sapiens, UniProt P02671)
T1 construct: Thrombin cleaves the α and γ subunits of fibrin, exposing fibrinopeptide A (Knob A) and fibrinopeptide B (Knob B)
T1 sequence (P02671 36-866 limits assumed): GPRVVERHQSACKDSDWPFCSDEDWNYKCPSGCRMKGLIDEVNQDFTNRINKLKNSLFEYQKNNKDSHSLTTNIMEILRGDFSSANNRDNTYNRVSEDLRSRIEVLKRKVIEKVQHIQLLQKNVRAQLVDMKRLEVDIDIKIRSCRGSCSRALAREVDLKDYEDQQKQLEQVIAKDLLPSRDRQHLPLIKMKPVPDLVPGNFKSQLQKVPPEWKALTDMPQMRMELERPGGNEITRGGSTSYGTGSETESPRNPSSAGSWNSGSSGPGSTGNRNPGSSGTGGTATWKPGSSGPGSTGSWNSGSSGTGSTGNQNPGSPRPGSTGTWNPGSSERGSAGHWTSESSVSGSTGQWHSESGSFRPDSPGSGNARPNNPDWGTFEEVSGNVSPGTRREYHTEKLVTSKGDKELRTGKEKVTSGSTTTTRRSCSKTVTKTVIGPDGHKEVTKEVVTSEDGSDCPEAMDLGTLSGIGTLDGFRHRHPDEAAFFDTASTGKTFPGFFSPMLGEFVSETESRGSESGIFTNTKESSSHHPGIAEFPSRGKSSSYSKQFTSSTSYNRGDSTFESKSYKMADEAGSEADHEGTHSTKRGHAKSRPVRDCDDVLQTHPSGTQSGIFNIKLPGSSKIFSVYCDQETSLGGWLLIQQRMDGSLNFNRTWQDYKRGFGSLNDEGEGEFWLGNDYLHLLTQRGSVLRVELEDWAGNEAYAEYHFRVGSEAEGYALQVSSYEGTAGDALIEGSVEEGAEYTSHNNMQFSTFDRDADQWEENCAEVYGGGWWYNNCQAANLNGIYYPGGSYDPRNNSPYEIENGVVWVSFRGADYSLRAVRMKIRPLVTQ
T1 sequence (P02675 45-491 partner limits assumed): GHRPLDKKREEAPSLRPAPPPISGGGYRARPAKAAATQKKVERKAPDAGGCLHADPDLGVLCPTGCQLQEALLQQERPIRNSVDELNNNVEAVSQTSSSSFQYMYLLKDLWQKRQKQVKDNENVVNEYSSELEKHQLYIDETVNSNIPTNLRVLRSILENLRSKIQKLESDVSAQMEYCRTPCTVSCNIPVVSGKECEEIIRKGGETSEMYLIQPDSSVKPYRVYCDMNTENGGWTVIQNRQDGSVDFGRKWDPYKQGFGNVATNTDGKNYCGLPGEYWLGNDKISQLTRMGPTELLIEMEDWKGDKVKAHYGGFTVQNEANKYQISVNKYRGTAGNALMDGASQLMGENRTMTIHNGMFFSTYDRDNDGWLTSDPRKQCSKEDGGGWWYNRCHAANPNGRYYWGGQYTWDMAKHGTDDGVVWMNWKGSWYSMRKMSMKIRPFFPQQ
T1 sequence (P02679 27-453 partner): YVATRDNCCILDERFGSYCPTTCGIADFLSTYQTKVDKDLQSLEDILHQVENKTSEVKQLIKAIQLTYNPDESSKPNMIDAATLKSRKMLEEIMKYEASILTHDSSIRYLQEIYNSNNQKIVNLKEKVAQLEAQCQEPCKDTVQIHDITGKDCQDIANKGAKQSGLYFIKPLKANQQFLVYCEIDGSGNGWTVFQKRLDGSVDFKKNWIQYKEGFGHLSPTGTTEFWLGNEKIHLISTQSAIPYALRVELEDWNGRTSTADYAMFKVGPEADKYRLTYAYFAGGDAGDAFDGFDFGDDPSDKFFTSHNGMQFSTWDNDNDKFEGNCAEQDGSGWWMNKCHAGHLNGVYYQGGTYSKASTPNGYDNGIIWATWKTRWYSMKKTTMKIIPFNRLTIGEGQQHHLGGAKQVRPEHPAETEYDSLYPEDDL

T2: fibrin (Homo sapiens, UniProt P02671)
T2 construct: Thrombin cleaves the α and γ subunits of fibrin, exposing fibrinopeptide A (Knob A) and fibrinopeptide B (Knob B)
T2 sequence (P02671 36-866 limits assumed): T1 sequence (P02671 36-866 limits assumed)
T2 sequence (P02675 45-491 partner limits assumed): T1 sequence (P02675 45-491 partner limits assumed)
T2 sequence (P02679 27-453 partner): T1 sequence (P02679 27-453 partner)

B1: FD: Fibrinogen structural domain protein of FGL1, positions 48-290 of SEQ ID No. 1 (SEQ ID No. 3) (protein)
chain: TVIDLGSKRQYADCSEIFNDGYKLSGFYKIKPLQSPAEFSVYCDMSDGGGWTVIQRRSDGSENFNRGWKDYENGFGNFVQKHGEYWLGNKNLHFLTTQEDYTLKIDLADFEKNSRYAQYKNFKVGDEKNFYELNIGEYSGTAGDSLAGNFHPEVQWWASHQRMKFSTWDRDHDNYEGNCAEEDQSGWWFNRCHSANLNGVYYSGPYTAKTDNGIVWYTWHGWWYSLKSVVMKIRPNDFIPNVI
B2: FD mutant: FD with tryptophan at key positions 204 and 269 mutated to alanine (protein)
chain: B1 chain with W157A, W222A

How the values were obtained:
fibrin aggregates [1] = molecular target: T1, fibrin aggregates; experiment: synergistic dissolving of fibrin aggregates with tissue plasminogen activator tPA; type: biochemical; settings: 2 nM tPA plus different doses, added after 1 h of fibrin formation
Method: The Multifunctional enzyme marker M200PRO detected the light scattering process, and the excitation light of the instrument was adjusted to 350 nm and the emission light to 350 nm. 3.3 μM of Fibrinogen in the control group, 3.3 μM of Fibrinogen and 2.5 U/ml of thrombin in the model group. The above systems were all set up in 20 mM Tris-HCl, pH 7.4, 150 mM NaCl ±[…] CaCl2 solution in a 100 μl/well (96-well plate). After 1 h of gel-like fibrin formation, 100 μl, 2 nM tissue plasminogen activator tPA and different doses of Fibrinogen like protein 1 (FGL1) were added. Kinetic curves were measured at 25° C. by detecting A350 absorption values every minute.
The control group was a reagent control, and the administered groups were 2 nM tissue plasminogen activator tPA, different doses of Fibrinogen like protein 1 (FGL1) alone groups, and groups in combination with other reagents. Kinetic curves were measured at 37° C. using a multifunctional enzyme marker M200PRO to detect the absorption values of the 510 nm excitation light every minute.
The Multifunctional enzyme marker M200PRO detected the light scattering process, and the excitation light of the instrument was adjusted to 350 nm and the emission light to 350 nm. […] Kinetic curves were measured at 25° C. by detecting A350 absorption values every minute. […]

[2] = test system: thrombin-induced thrombosis model; experiment: thrombin-induced thrombosis model, plasmid injection and overexpression; type: in vivo, BALB/c mice; settings: expression plasmid 100 μg per mouse tail vein, overexpression; thrombin 15 U per mouse; deaths within 1 hour
Method: Construct FGL1 expression plasmid with pcDNA3.1 vector, inject the plasmid into the tail vein of mice, 100 μg/2 ml PBS/per mouse, extract the plasma of the mice after 18 hours, and detect the overexpressed FGL1 content in the plasma by ELISA;
Thrombin 15 U/200 μl PBS/per mouse was injected into the tail vein for modelling, and the number of mice in each group that died within 1 hour after injection was recorded to calculate the protection rate of Fibrinogen like protein 1 (FGL1) overexpression.
The specific operation methods were the same as those described previously for the protective effects of overexpression of FGL1.

fibrin [3] = molecular target: T2, fibrin; experiment: fibrin aggregation, light scattering / A350 kinetic curve; type: biochemical; settings: 3.3 μM Fibrinogen, 2.5 U/ml thrombin, ±5 mM CaCl2, 25° C., different doses
Method: Multifunctional enzyme marker M200PRO detected the light scattering process, and the instrument excitation light was adjusted to 350 nm and emission light to 350 nm. 3.3 μM of Fibrinogen in the control group, 3.3 μM of Fibrinogen and 2.5 U/ml of thrombin in the model group and 3.3 μM of Fibrinogen and 2.5 U/ml thrombin and different dose of Fibrinogen related protein 1 (FGL1). All the above systems were in 20 mM Tris-HCl, pH 7.4, 150 mM NaCl±5 mM CaCl2 solution in a 100 μl/well (96-well plate). The kinetic curve was measured by assaying every minute at 25° C.
Multifunctional enzyme marker M200PRO detected the light scattering process; the instrument excitation light was adjusted to 350 nm, and the emission light was adjusted to 350 nm. 3.3 μM of Fibrinogen in the control group, 3.3 μM of Fibrinogen and 2.5 U/ml of thrombin in the model group, and 3.3 μM of Fibrinogen and 2.5 U/ml thrombin and different dose of fibrinogen structural domain (FD). The above systems were in 20 mM Tris-HCl, pH 7.4, 150 mM NaCl±5 mM CaCl2 solution. The kinetic curves were measured at 25° C. by detecting the A350 absorption values every minute.

fibrin aggregates [4] = molecular target: T1, fibrin aggregates; experiment: synergistic dissolving of fibrin aggregates with urokinase uPA; type: biochemical
mouse thrombus = mouse thrombus morphology observed by scanning electron microscopy; type: in vivo, mice; settings: FIG. 14
fibrin [5] = molecular target: T2, fibrin; experiment: fibrin aggregation observed by scanning electron microscopy; type: biochemical; settings: FIG. 12
aggregated fibrin = experiment: cleavage of aggregated fibrin; type: biochemical; settings: FIG. 27
Excerpt: Mutation of certain key sites in this protein's amino acid sequence can also enhance its function of inhibiting thrombosis.

Molecule	dissolving fibrin aggregates together with tPA (fibrin aggregates [1])	survival rate of mice [2]	effect on fibrin aggregation (fibrin [3])	dissolving fibrin aggregates together with urokinase uPA (fibrin aggregates [4]; 800 U/ml uPA plus different doses of FGL1)	morphology of mouse thrombus (mouse thrombus)	structure of thrombus formed by fibrin aggregation (fibrin [5])	dissolving fibrin aggregates together with urokinase uPA (fibrin aggregates [4]; 2800 U/ml uPA plus different doses of FD (800 U/ml in thrombus lysis))	cleavage of aggregated fibrin, mutant compared to unmutated form (aggregated fibrin)
FGL1: Fibrinogen like protein 1, amino acid sequence SEQ ID No. 1, expressed in eukaryotic cells; given as pcDNA3.1 expression plasmid in Example 6	synergistically dissolving fibrin aggregates	significantly increasing the survival rate of mice	inhibits fibrin aggregation	synergistically dissolving fibrin aggregates	–	–	–	–
B1	synergistically dissolving fibrin aggregates	significant improvement of survival rate in mice	inhibits fibrin aggregation	–	becomes thinner and looser in structure	becomes thinner and looser in structure	synergistically dissolving fibrin aggregates	–
B2	–	–	–	–	–	–	–	significantly enhanced
